Test: label from the status in PepcDB records

| Sequence | protein production |
| --- | --- |
| MLHDWGVIAAALAYIGFLFVVASWGDRLSQGQRERAGGLIYPLSLAIYCTSWTFFGSVGFASRSSFDFLAIYVGPVLVVLVATPLLRRVIRLAKSQNITSIADFIAARYGKSQKVAATVAIIAIIGSVPYIALQLKAVSSSLQTILGDDHNIADIPIVGDIALIVAMAMALFTVLFGTRQASATEHQHGLMLAVATESIVKLVAFLAAGIFVTFWMFSPSALIERAMQMPEAVRALDSTSPANFLTMTALSFCAFMMLPRQFHVSVVENSNEAEVGRARWLFPLYLVAINLFVIPIALAGLVKFPFGKVDSDMYVLALPIDADAPMLSVAVFIGGLSAATAMVIVECVALAVMVSNDLVMPLVLKRHGAPRPDEQRNFGRFLLTVRRVAIFAILILAYLYYRALGNTQLAAIGLLSFAAIAQFAPSFFGGLIWRRATARGAIGGLLVGFAVWAYTLFIPSFMENSTTGLLLLQHGPWGIEALRPQALFGSDLPPLLHGVLWSLSLNLIAYILLSLLRQPSSIERLQAEVFVPDALTPMTPAFRRWRTTVTVQDIVGAVSQYLGPERARDSFRSFAAGRRITLDPAAPADFELLKHAEHLIASSIGAASSRLVLSLLLRKRTVSAEAALKLLDDSHAALHFNREILQTALNHVRQGIAVFNPELQLICSNRQFGEILGLPPHIIQIGIPLIEILEFLASNSIAPIDAEAHTQMRMAAYTTEGEPFIERFPDRHLVVEVRANRMPDGGLVITFSDVTPSFEAAEALERANATLERRVRERTEELTRLNSQLALAKSTAEEANISKTRFLAAASHDILQPLNAARLYATSLVERQNGGEDSRLVENIDESLQAIEEIIGALLDISRLDAGAMTPSLSNFVIGDLMRSLEIEFSPTARAKGLELTFVPCSLPVQSDRLMLRRLMQNLISNAIKYTPQGRVLVGCRRQGQSLRIGIYDTGVGVPILKRGEIFKEFHRLEQGARIARGLGLGLSIVERLARVLNHGIALDSNRGGGSCFSVTVPVAEAVNHTAAVTSATPLSRASMSGILVVCIENDPAILDGMKTLLTTWDAKVIAVADPEAAIRAIESSEQRVTGLLVDYHLDRGNGIAAIREIRARFGQSIPAILITADRSPGVRASARQEEIAVLNKPVKAASLRALLSQWHAQQSVVAAE | failed |
| MILFDGMYSLGGVILSLLALMGSIYINKKDYEKYPFGKKMIEPLIVIIKSLAIFIMCIYSLTGSIKDLINGGNEVQYGYALIYALISTLGCGIAYFFLKKKGKAINSSLINIESSQWLMDALLSMGVLVGFLIANIIKHTEFIWFNRYLDPLMVIICSSVFIKMPIKSFGDGLKELLEFKADDSITLEIDKLVEGIEREYNFEDTITRVSKTGNDLRIEIDFIYNEESNIKALDEMDSLREKIFNSLSHINYEKWLNVSFTKDKKWAI | failed |
| MNQMQGRLVAGRYRLGEAIGSGGMGRVWRAHDEVLHRTVAIKELTAALYVSESDQAILLARTRGEARAAARINHSAVVTVHDVLEHDGRPWIVMELVEGRSLADAVKEEERVDPREAARVGLWVLRALRAAHTAGVLHRDVKPGNVLLADDGRVLLTDFGIAQIEGDSTITRTGEVVGSVDYLAPERVRGHDPGPSSDLWALGATLYTAVEGRSPFRRTSPLTTMQAVVEEEATEPRYAGALAPVISALLRKDPAERPDATEAEHLLAQAAEGRRPDAAQAYVPTTRYEGPPRAGDTAVQGMPAGGSGATPYPQAGGSGATPYPPTTGPTGAGPAPTGHTRGGYTQVGHTEGGYTAPGYAPAPAVGGAAPGRARRVRMRTLALVVAVAALIGAGTAVVLHQRDEGGSSAGADPTQGPTGSAAPSPSPSASATTGKGPGGSVPADWTRRDDPLGFSLYLPENWQRRDFDGDSGELRQIDYTPDGGNHVLRISVDTAPDYNDPYAHQQDLDAQLLQRLVDYRRVKLERAGYRDRDSARWEYTWTALAKDTEFPGPRRAVSQMYMSRDGVEYALNMTGPAGDWPTTQRRFKAVLQGWQEETG | failed |
| MKWRCLIYIETRGDILFMTKWFNVGKIVNTHGVRGEIRVISRTDFPEERYKVGNTLYISNEKGTDYLPVKVTSHRQHKTFDLLTFEGYNNVDEVEKFKGSLIKVPEEQLGELAEGEYYYHEIIGCSVVTEEGEALGTIKEILSPGANDVWVIKRPKGQDLLIPYIDDVVLQVNIENKLVTIHVMEGLLLEHHHHHH | not failed |
| MKGDRLADIRTIGVVVLYRPDSSVLDAIASYRHQVHELIVVDNSEEQDHKLHSRLRDRFGATIVGEGRNLGIAAALNRAAREALAEGFDLLLTMDQDSRAEPGMVEQMLACLGSDWRERVGLIAPFHLTGARPAPGGTTPCSDVMTPMTSGCLVNLAAFREVGPFRDDFFIDFVDNEYCLRLRKKGFQVVRANRALLHHRVGDLRRYGPFVATHHSPLRRYYKTRNRCAVFAEYLRDFPVHCLFDLVRLGKEVASILIFEREKTAKLRMMWRGFLDFRRGRFGPYGGLEHHHHHH | failed |

Reference: a protein production outcome set (Wang et al. 2014)
